Source: patent publication US12194082B2, “Compositions and methods for treatment of homocystinuria” (THE REGENTS OF THE UNIVERSITY OF COLORADO, priority 2016, dated 2025)
Several values for one entry are separate records, joined by “and”; a condition that tells them apart may be missing. Equal values may be shown once.

Columns and labels:
[1] = CBS enzyme activity assay, specific activity of pure enzyme; assay type: biochemical; settings: PEGylated vs non-PEGylated htCBS
Procedure: CBS activity was determined by a radioisotope assay with C^14-labeled serine as a substrate. Ten μl (total 490 ng) of pure htCBS in dilution buffer (0.1 M Tris-HCl pH=8.6, 1 mM DTT, 10 μM PLP, 0.5 mg/ml BSA) or 10 μl of plasma were added to 85 μl of reaction mixture containing 0.1 M Tris-HCl pH=8.6, 10 mM L-serine, 0.5 mM PLP, 0.5 mg/ml BSA and 0.3 μCi (for pure enzyme) or 0.45 μCi (for plasma) of L-[C^14(U)]-Serine. Samples were incubated for 5 min at 37° C. and reaction was initiated by addition of 5 μl of 0.2 M Hcy (10 mM final concentration). Following 30 min of incubation at 37° C., a 20 μl aliquot of the assay mixture was applied onto a grade 3 CHR Whatman (NJ, USA) paper. Assay initiation and sampling of the resulting mixture were staggered so that each reaction time was 30 minutes. Descending paper chromatography was used to isolate the radioactive product (Cth) from a labeled substrate (Ser). The C^14-cystathionine formed in the reaction was separated from C^14-serine by an overnight descending paper chromatography in 2-propanol/formic acid/H2O (75:5.7:18.9 v/v). Radioactivity in the area of the marker cystathionine (detected by staining the marker lane with ninhydrin) was determined by cutting the chromatogram into strips that were submerged in 5 ml of Opti-fluor scintillation cocktail (PerkinElmer, MA, USA) and counted in a Beckman LS-3801 scintillation counter. An enzyme-free sample was used as a blank to monitor the background radioactivity that was then subtracted from each sample. For pure enzyme, specific activity values are expressed as enzyme units (the amount of enzyme that produces 1 μmol of cystathionine/hour) per mg of CBS, and for plasma samples as units per μl plasma.

[2] = tested on: homocysteine, cystathionine and cysteine; experiment: Repeated administration of htCBS or PEGhtCBS: plasma and tissue metabolites; assay type: in vivo, HO mice; settings: 5 mg/kg, 5 consecutive days on weeks 1 and 3
Procedure: (§1) Plasma metabolites homocysteine, cystathionine and cysteine were determined by stable-isotope-dilution liquid chromatography mass spectrometry as previously described in (Allen et al., 1993, Metabolism, 42: 1448-1460). Measurements of total non-protein bound homocysteine and other aminothiols as well as of amino acids in tissue were performed as described in (Maclean et al., 2010b. Mol. Genet. Metab. 101, 153-162). Metabolites were determined by stable-isotope-dilution liquid chromatography mass spectrometry.
This lack of metabolic modulation by non-PEGylated htCBS further confirms the necessity to modify htCBS by covalent attachment of polyethylene glycol molecules.
The long term effect of PEGhtCBS administration was monitored using HO mice. The PEGhtCBS enzyme was administered to 8 HO mice at a dose of 7.5 mg/kg, twice a week (Monday and Thursday) for the first two weeks, and then three times a week (Monday, Wednesday and Friday) for 6 weeks. Blood samples were collected 24 hours (Tuesday) and 72 hours (Monday) post injection (FIG. 4A-4C). […] Cystathionine and cysteine levels were positively influenced as well. […] In addition to analysis of plasma metabolites levels, liver, kidney and brain tissue samples from the injected mice were analyzed as well to determine the levels of non-protein bound homocysteine (free and disulfide-linked forms).

[3] = Pharmacokinetics of htCBS after a single dose (plasma CBS activity); assay type: in vivo, C57BL/6J mice; settings: for observed peak plasma level: first 4 hours
Procedure: The pharmacokinetic properties of a pharmacologically active substance that is administered to circulation is greatly affected by natural mechanisms of ADME. Rapid clearance of the injected molecule may greatly impact treatment efficacy and thus longer circulating half-lives are desired, which may translate into less frequent administrations or smaller doses that in turn minimize the side effects. To determine the pharmacokinetics of htCBS in plasma circulation, a single dose of 5 mg/kg was injected via subcutaneous (SC), intravenous (IV) or intraperitoneal (IP) routes to C57BL/6J mice.

[4] = htCBS activity during in vitro incubation in mouse plasma at 37° C.; assay type: in vitro ADME, wild type or HO mice
Procedure: The rapid decline in htCBS activity in vivo may be attributed to a facilitated clearance from circulation and may also be attributed to the loss of enzymatic activity of htCBS once introduced to the environment in circulation. To test the latter, htCBS was incubated in vitro in mouse plasma of wild type or HO mice at 37° C. for up to 96 hours, with activity measured every 24 hours. […] A modest 25% loss of activity was recorded after 96 hours of incubation.

[5] = tested on: tHcy, cystathionine; experiment: Betaine, PEGC15S and combination treatment: transsulfuration metabolites; assay type: in vivo, HO mice
Procedure: as §1
The betaine and betaine+PEGC15S groups were treated with 2% betaine in the drinking water throughout the 18 days of the experiment, and the latter group was injected with 7.5 mg/kg PEGC15S on days 14 and 15. The PEGC15S single treatment group was maintained on regular water and injected on days 14 and 15 as well. […] The betaine single treatment group maintained these levels of tHcy to day 18. […] Thus, the combination of PEGC15S with betaine allows for maintaining lower tHcy levels for an extended period of time.

Molecule: htCBS: truncated recombinant human CBS (SEQ ID NO: 3) where the C-terminal regulatory region has been removed
- Specific Activity [1]: 1193
- serum homocysteine levels [2]: no change
- AUC(0-t) (obs area) ([3]; 5 mg/kg IP): 932.4 mU-hr/μL
- Bioavailability ([3]; 5 mg/kg IP): 92%
- E Half-life ([3]; 5 mg/kg IP): 4.3 h
- MRT (area) ([3]; 5 mg/kg IP): 7.9 h
- cmax (obs) ([3]; 5 mg/kg IP): 75.9 Mu/μL
- observed peak plasma level ([3]; 5 mg/kg IP): ≤ 76 mU/μL
- AUC(0-t) (obs area) ([3]; 5 mg/kg IV): 1011 mU-hr/μL
- E Half-life ([3]; 5 mg/kg IV): 2.7 h
- MRT (area) ([3]; 5 mg/kg IV): 4.9 h
- observed peak plasma level ([3]; 5 mg/kg IV): up to 123 mU/μL
- AUC(0-t) (obs area) ([3]; 5 mg/kg SC): 500.9 mU-hr/μL
- Bioavailability ([3]; 5 mg/kg SC): 50%
- E Half-life ([3]; 5 mg/kg SC): 6.1 h
- MRT (area) ([3]; 5 mg/kg SC): 9.5 h
- cmax (obs) ([3]; 5 mg/kg SC): 34.5 Mu/μL
- loss of activity in mouse plasma ([4]; after 96 hours): 25%
- loss of activity in mouse plasma ([4]; up to 72 hours): no significant loss of activity

Molecule: C[N+](C)(C)CC(=O)O [betaine, N,N,N-trimethylglycine]
- decrease in tHcy ([5]; 14 days of 2% betaine in drinking water): 29% and 32%
- cystathionine change ([5]; throughout the 18 days): did not result in an increase
